Results as given in article PMC5760199, “Structural insights into the assembly and polyA signal recognition mechanism of the human CPSF complex”.

Key:
[1] = biological target: T1, CPSF160FL;WDR33 M1-K410;CPSF30FL;Fip1FL (Homo sapiens;Homo sapiens;Homo …, UniProt Q10570;Q9C0J8;O95639-3;Q6UN15-4 1-1443;1-410;1-243;1-378, |||); experiment: fluorescence polarization; two repeats; 20 mM Tris pH 7.5, 150 mM NaCl, 1 mM DTT, 0.05% Tween 20, 25 C, 0.1 nM labelled RNA; details: protein: recombinant;recombinant;recombinant;recombinant; tags: His6 (438B vector; Ni-NTA and Streptactin purified);;; copies: 1;1;1;1; label: 5' Atto532
T1 sequence (Q10570 whole entry, chain 1 of 4): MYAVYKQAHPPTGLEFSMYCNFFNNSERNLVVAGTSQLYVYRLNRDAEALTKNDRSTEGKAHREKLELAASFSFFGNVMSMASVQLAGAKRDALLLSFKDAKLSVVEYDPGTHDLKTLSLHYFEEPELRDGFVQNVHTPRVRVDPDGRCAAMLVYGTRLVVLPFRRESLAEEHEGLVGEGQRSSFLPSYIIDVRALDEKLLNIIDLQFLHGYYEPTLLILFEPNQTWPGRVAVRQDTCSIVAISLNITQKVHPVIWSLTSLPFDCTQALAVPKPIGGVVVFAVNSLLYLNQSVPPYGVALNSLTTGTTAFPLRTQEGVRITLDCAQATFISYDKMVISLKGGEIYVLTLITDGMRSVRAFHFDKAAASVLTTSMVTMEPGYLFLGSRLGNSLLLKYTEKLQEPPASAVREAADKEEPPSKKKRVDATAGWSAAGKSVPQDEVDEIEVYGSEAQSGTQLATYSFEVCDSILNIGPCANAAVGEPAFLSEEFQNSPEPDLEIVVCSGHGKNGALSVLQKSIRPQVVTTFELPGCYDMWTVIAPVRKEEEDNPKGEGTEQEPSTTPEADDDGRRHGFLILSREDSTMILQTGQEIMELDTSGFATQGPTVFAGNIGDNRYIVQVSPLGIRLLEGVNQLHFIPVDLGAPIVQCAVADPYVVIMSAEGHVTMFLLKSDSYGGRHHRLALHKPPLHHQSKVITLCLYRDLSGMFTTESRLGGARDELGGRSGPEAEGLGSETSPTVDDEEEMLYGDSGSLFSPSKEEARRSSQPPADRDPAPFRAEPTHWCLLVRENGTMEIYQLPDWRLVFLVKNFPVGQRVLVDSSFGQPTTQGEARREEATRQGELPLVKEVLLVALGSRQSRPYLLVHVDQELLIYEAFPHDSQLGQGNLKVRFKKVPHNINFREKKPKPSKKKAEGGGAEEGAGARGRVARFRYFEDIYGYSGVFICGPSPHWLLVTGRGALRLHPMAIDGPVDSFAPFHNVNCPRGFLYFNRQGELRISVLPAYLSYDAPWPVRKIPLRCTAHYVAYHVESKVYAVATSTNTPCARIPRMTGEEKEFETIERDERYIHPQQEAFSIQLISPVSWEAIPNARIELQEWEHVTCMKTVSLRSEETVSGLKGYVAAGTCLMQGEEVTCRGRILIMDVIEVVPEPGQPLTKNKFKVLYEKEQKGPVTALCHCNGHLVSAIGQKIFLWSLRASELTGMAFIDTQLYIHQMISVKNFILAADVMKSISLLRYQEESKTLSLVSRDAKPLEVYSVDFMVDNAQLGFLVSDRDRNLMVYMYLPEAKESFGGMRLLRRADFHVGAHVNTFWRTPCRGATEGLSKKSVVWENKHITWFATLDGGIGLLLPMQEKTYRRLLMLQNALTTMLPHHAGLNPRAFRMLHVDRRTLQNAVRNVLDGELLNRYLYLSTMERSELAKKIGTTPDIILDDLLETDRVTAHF
T1 sequence (Q9C0J8 1-410, chain 2 of 4): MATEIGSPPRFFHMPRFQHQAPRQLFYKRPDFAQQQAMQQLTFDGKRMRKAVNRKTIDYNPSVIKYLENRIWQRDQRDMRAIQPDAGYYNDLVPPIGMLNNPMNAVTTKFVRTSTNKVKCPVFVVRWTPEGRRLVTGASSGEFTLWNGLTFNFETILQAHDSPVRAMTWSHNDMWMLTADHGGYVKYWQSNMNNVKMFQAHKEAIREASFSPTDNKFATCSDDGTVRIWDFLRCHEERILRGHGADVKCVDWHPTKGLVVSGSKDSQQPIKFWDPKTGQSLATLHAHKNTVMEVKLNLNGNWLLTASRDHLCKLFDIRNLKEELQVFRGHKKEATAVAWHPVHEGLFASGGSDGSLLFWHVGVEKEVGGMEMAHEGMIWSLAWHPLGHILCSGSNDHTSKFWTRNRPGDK
T1 sequence (O95639 other isoform, or with tags, fused parts or gaps |||, chain 3 of 4): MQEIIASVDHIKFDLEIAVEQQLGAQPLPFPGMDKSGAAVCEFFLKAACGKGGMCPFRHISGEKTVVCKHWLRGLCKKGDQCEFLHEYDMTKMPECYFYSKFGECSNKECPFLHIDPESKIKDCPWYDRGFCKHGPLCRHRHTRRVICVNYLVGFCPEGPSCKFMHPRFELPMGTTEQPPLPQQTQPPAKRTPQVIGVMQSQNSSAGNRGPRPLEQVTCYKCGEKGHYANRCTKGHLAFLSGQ
T1 sequence (Q6UN15 other isoform, or with tags, fused parts or gaps |||, chain 4 of 4): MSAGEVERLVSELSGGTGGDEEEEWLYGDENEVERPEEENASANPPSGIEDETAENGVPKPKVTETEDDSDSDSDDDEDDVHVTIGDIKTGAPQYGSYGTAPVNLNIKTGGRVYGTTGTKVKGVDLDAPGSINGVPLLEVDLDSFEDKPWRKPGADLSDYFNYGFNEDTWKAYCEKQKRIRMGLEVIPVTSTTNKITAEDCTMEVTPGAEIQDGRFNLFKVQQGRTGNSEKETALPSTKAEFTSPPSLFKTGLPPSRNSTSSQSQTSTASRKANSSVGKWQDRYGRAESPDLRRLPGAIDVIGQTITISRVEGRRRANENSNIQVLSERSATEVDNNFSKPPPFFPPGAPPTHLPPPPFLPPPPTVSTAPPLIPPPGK

[2] = biological target: CPSF160FL;WDR33 M1-K410;CPSF30 ZF1-3 (Homo sapiens;Homo sapiens;Homo sapiens, UniProt Q10570;Q9C0J8;O95639-3 1-1443;1-410;1-117, ||); experiment: fluorescence polarization; 20 mM Tris pH 7.5, 150 mM NaCl, 1 mM DTT, 0.05% Tween 20, 25 C, 0.1 nM labelled RNA; details: protein: recombinant;recombinant;recombinant; tags: His6 (438B vector; Ni-NTA and Streptactin purified);; copies: 1;1;1; label: 5' Atto532
CPSF160FL;WDR33 M1-K410;CPSF30 ZF1-3, sequence (Q10570 whole entry, chain 1 of 3): as the sequence (Q10570 whole entry, chain 1 of 4) above
CPSF160FL;WDR33 M1-K410;CPSF30 ZF1-3, sequence (Q9C0J8 1-410, chain 2 of 3): as the sequence (Q9C0J8 1-410, chain 2 of 4) above
CPSF160FL;WDR33 M1-K410;CPSF30 ZF1-3, sequence (O95639 1-117, chain 3 of 3): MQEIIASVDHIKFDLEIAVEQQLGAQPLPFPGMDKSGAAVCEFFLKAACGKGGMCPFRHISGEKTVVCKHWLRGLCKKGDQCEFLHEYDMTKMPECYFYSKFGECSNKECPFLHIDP

[3] = biological target: CPSF160FL;WDR33 M1-K410;CPSF30 ZF1-5;Fip1CD (Homo sapiens;Homo sapiens;Homo …, UniProt Q10570;Q9C0J8;O95639-3;Q6UN15-4 1-1443;1-410;1-169;130-195, |||); experiment: as above; details: protein: recombinant;recombinant;recombinant;recombinant; tags: His6 (438B vector; Ni-NTA and Streptactin purified);;; copies: 1;1;1;1; label: 5' Atto532
CPSF160FL;WDR33 M1-K410;CPSF30 ZF1-5;Fip1CD, sequence (Q10570 whole entry, chain 1 of 4): as the sequence (Q10570 whole entry, chain 1 of 4) above
CPSF160FL;WDR33 M1-K410;CPSF30 ZF1-5;Fip1CD, sequence (Q9C0J8 1-410, chain 2 of 4): as the sequence (Q9C0J8 1-410, chain 2 of 4) above
CPSF160FL;WDR33 M1-K410;CPSF30 ZF1-5;Fip1CD, sequence (O95639 1-169, chain 3 of 4): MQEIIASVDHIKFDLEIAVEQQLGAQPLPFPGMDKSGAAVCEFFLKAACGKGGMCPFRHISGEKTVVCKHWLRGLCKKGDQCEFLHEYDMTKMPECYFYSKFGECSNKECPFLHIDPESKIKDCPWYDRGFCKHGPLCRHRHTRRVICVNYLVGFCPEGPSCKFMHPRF
CPSF160FL;WDR33 M1-K410;CPSF30 ZF1-5;Fip1CD, sequence (Q6UN15 145-210, chain 4 of 4): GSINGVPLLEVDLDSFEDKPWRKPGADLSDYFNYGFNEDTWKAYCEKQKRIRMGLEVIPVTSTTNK

[4] = biological target: CPSF160FL;WDR33 M1-K410 K46A/R47A;CPSF30 ZF1-3 (Homo sapiens;Homo sapiens;Homo sapiens, UniProt Q10570;Q9C0J8;O95639-3 1-1443;1-410;1-117, |K46A;R47A|); experiment: as above; details: protein: recombinant;recombinant;recombinant; tags: His6 (438B vector); copies: 1;1;1; label: 5' Atto532
CPSF160FL;WDR33 M1-K410 K46A/R47A;CPSF30 ZF1-3, sequence (Q10570 whole entry, chain 1 of 3): as the sequence (Q10570 whole entry, chain 1 of 4) above
CPSF160FL;WDR33 M1-K410 K46A/R47A;CPSF30 ZF1-3, sequence (Q9C0J8 1-410 K46A/R47A, chain 2 of 3): as the sequence (Q9C0J8 1-410, chain 2 of 4) above, with K46A, R47A counted along it
CPSF160FL;WDR33 M1-K410 K46A/R47A;CPSF30 ZF1-3, sequence (O95639 1-117, stated change not applied, chain 3 of 3): as the sequence (O95639 1-117, chain 3 of 3) above

[5] = biological target: CPSF160FL;WDR33 M1-K410 R49A/K50A;CPSF30 ZF1-3 (Homo sapiens;Homo sapiens;Homo sapiens, UniProt Q10570;Q9C0J8;O95639-3 1-1443;1-410;1-117, |R49A;K50A|); experiment: as above; details: protein: recombinant;recombinant;recombinant; tags: His6 (438B vector); copies: 1;1;1; label: 5' Atto532
CPSF160FL;WDR33 M1-K410 R49A/K50A;CPSF30 ZF1-3, sequence (Q10570 whole entry, chain 1 of 3): as the sequence (Q10570 whole entry, chain 1 of 4) above
CPSF160FL;WDR33 M1-K410 R49A/K50A;CPSF30 ZF1-3, sequence (Q9C0J8 1-410 R49A/K50A, chain 2 of 3): as the sequence (Q9C0J8 1-410, chain 2 of 4) above, with R49A, K50A counted along it
CPSF160FL;WDR33 M1-K410 R49A/K50A;CPSF30 ZF1-3, sequence (O95639 1-117, chain 3 of 3): as the sequence (O95639 1-117, chain 3 of 3) above

[6] = biological target: T1, CPSF160FL;WDR33 M1-K410;CPSF30FL;Fip1FL; experiment: fluorescence polarization; error 0.09 in text, 0.90 in Table 2; 20 mM Tris pH 7.5, 150 mM NaCl, 1 mM DTT, 0.05% Tween 20, 25 C, 0.1 nM labelled RNA; details: protein: recombinant;recombinant;recombinant;recombinant; tags: His6 (438B vector; Ni-NTA and Streptactin purified);;; copies: 1;1;1;1; label: 5' Atto532

| Binder | Kd [1] | Kd [2] | Kd [3] | Kd [4] | Kd [5] | Kd [6] |
| --- | --- | --- | --- | --- | --- | --- |
| CACACAAGAAAGGCAA (ssRNA) [L3 PAS RNA mutant (AAGAAA)] | 120 ± 23 nM | 43 ± 2 nM | 70 ± 6 nM |  |  |  |
| CACACAAUAAAGGCAA (ssRNA) [L3 PAS RNA wild-type (AAUAAA)] |  | < 0.1 nM | 0.11 ± 0.03 nM | 7.78 ± 0.78 nM | 2.42 ± 0.66 nM | 0.65 ± 0.09 nM |
